Blank lines part the entries; values can stand above or below the molecule they belong to.
Tests used:
[1] = target: MBP-KHD: maltose binding protein fused to the juxta-membrane and kinase homology domain of human GC-E (M496-K806) (human) (UniProt Q02846); assay: backscattering interferometry (BSI); free solution; myristoylated GCAP 0 to 6 μM with constant 375 nM MBP fusion protein; titration buffer with 200 μM Ca2+; MBP lacking a GC-E fragment as reference
[2] = target: full-length human photoreceptor guanylate cyclase GC-E (human) (UniProt Q02846); assay: backscattering interferometry (BSI); free solution; HEK cell vesicles with full-length human GC-E (50 μg/mL total protein before mixing) with 0-10 μM GCAP; 30 mM Mops/KOH pH 7.2, 60 mM KCl, 4 mM NaCl, 1 mM DTT, 3.5 mM MgCl2, 1 mM GTP, 0.3 mM ATP; 1 mM EGTA; Mock-HEK vesicles as reference; apparent KD
[3] = target: full-length human photoreceptor guanylate cyclase GC-E (human) (UniProt Q02846); assay: backscattering interferometry (BSI); free solution; HEK cell vesicles with full-length human GC-E with 0-10 μM GCAP; titration buffer with saturating 200 μM Ca2+; Mock-HEK vesicles as reference
[4] = target: MBP-KHD: maltose binding protein fused to the juxta-membrane and kinase homology domain of human GC-E (M496-K806) (human) (UniProt Q02846); assay: ITC; VP-ITC, 25 °C; MBP fusion protein 0.5 μM in the cell, GCAP 10 μM in the syringe; 30 mM Mops/KOH pH 7.2, 60 mM KCl, 4 mM NaCl, 1 mM DTT, 3.5 mM MgCl2, 1 mM GTP, 0.3 mM ATP; injections into MBP subtracted; one binding site model; data not shown
[5] = target: T1, full-length human photoreceptor guanylate cyclase GC-E (human, UniProt Q02846 52-1103); assay: backscattering interferometry (BSI); free solution; HEK cell vesicles with full-length human GC-E with 0-10 μM GCAP; titration buffer with saturating 200 μM Ca2+; Mock-HEK vesicles as reference; conditions: one partner purified
T1 construct: also called guanylate cyclase 1; guanylate cyclase type 1
T1 sequence (looked up): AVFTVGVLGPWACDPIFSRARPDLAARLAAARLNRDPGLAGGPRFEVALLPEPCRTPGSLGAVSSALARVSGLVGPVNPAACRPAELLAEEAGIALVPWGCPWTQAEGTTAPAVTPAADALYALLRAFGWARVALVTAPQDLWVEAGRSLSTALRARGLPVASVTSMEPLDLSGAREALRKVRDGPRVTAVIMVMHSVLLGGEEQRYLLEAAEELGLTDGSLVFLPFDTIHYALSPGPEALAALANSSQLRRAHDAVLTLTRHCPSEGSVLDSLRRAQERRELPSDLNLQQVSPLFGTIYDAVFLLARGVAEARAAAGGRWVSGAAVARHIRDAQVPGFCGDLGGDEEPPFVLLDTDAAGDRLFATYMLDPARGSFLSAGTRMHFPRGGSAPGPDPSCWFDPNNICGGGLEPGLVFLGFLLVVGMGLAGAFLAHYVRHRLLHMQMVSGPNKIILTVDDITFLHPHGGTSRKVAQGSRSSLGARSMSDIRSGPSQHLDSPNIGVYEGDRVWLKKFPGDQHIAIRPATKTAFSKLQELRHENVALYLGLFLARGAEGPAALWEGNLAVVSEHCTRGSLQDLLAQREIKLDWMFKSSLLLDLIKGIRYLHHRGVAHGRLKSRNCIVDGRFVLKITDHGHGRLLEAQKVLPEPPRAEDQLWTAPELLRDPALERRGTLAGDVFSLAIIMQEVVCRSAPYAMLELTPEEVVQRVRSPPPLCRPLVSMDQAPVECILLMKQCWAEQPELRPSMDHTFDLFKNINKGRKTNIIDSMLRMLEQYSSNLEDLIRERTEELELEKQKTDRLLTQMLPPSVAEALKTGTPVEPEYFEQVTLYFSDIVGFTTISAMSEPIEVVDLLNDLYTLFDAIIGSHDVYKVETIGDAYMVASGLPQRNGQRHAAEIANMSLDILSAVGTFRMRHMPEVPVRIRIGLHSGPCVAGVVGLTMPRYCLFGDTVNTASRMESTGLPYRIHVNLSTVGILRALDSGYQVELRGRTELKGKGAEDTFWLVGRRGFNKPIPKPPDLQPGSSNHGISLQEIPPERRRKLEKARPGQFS

[6] = target: T1, full-length human photoreceptor …; assay: backscattering interferometry (BSI); free solution; HEK cell vesicles with full-length human GC-E (50 μg/mL total protein before mixing) with 0-10 μM GCAP; 30 mM Mops/KOH pH 7.2, 60 mM KCl, 4 mM NaCl, 1 mM DTT, 3.5 mM MgCl2, 1 mM GTP, 0.3 mM ATP; 1 mM EGTA; Mock-HEK vesicles as reference; apparent KD; conditions: one partner purified
[7] = target: T2, myristoylated bovine recoverin (bovine, UniProt P21457 1-202, myristoylated); assay: backscattering interferometry (BSI); free solution, label-free; recoverin dilution series with constant 4 μM GST-NRK; 20 mM HEPES/KOH pH 7.5, 100 mM NaCl, 1 mM MgCl2, 200 μM CaCl2; GST alone as reference; one site binding model; conditions: both partners purified
T2 construct: recoverin, bovine, neuronal Ca2+-sensor protein of photoreceptors
T2 sequence (looked up): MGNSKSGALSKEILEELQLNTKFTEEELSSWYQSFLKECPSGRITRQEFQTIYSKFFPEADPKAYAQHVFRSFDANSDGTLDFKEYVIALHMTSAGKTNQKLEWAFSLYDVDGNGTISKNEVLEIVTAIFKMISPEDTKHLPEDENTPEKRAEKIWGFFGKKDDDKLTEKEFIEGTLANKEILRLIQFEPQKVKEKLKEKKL

Kd [1]: 0.841 µM
Kd [2]: 0.663 µM
Kd [3]: 0.505 µM
Kd [4]: 0.58 µM
stoichiometry N [4]: 0.9
Molecule: guanylate cyclase-activating protein 1 (GCAP1), myristoylated (from UniProt P46065 1-205) (natural protein)

Kd [5]: 0.418 ± 0.135 µM
Kd [6]: 0.231 µM
B1: guanylate cyclase-activating protein 2 (GCAP2), myristoylated (natural protein, UniProt P51177 1-204, looked up)
chain: MGQQFSWEEAEENGAVGAADAAQLQEWYKKFLEECPSGTLFMHEFKRFFKVPDNEEATQYVEAMFRAFDTNGDNTIDFLEYVAALNLVLRGTLEHKLKWTFKIYDKDRNGCIDRQELLDIVESIYKLKKACSVEVEAEQQGKLLTPEEVVDRIFLLVDENGDGQLSLNEFVEGARRDKWVMKMLQMDLNPSSWISQQRRKSAMF
modifications: myristoylated

Kd [7]: 4.72 µM
B2: GST fusion protein containing the N-terminal 25 amino acids of bovine GRK1 (domain or fragment, UniProt P28327 1-25, looked up)
chain: MDFGSLETVVANSAFIAARGSFDAS
notes: rhodopsin kinase GRK1, bovine, the N-terminal 25 amino acids; also called NRK; N-terminal GRK1 fragment

Source: article PMC5374524, “Label-free quantification of calcium-sensor targeting to photoreceptor guanylate cyclase and rhodopsin kinase by backscattering interferometry” (Scientific Reports, 2017)
